These are literature values, as cited in publication PMC8322311.

Where two headings read alike, the source gives them in different places.

The target of data set [1] is SHH (Homo sapiens) (UniProt Q15465).
For data set [2] the target is unchanged. The source holds these as a separate data set.

Glypican-3 (from UniProt P51654): the Kd with SHH (Homo sapiens) [1] was 32 nM.

Regarding HHIP (from UniProt Q96QV1), in the data set with SHH (Homo sapiens) [2], the Kd was 6 nM.
